Among the data in patent US20250051478A1 (Y MABS THERAPEUTICS, published 2025) are Kd, koff and kon values, retold here.

The term Kd denotes the concentration at which binding is half-saturated. As a reminder, the koff is a measure of how fast the partners let go of each other. A word on the kon: it is the rate constant with which the complex forms. A lower kon goes with slow association.

Test [1] has as its target T1, CD38 (UniProt P28907 43-300, limits assumed).
T1 construct: also called cyclic ADP ribose hydrolase
The test can be described thus: SPR; YMS9d diluted to 1 mg/ml from the 10 mg/ml solution. For orientation: SPR reads the build-up and loss of mass on a sensor chip optically.

Test [2] concerns the target T1, CD38. The test can be described thus: SPR; YMS9d diluted to 1 mg/ml from the 20 mg/ml solution.

B1: YMS9d (bispecific antibody)
chain: QVQLQESGPGLVKPSETLSLTCTVSGFSLTSYGVHWVRQPPGKGLEWIGVMWRGGSTDYNAAFKSRVTISKDNSKNQVSLKLSSVTAADTAVYYCAKSMITTGFVMDSWGQGTLVTVSSGGGGSGGGGSGGGGSGGGGSGGGGSGGGGSDIQLTQSPSSLSASVGDRVTITCKASEDIYNRLTWYQQKPGKAPKLLISGATSLETGVPSRFSGSGSGKDYTFTISSLQPEDFATYYCQQYWSNPYTFGQGTKLEIKGGGGSGGGGSGGGGSGGGGSHVQLVESGGGLVQPGGSLRLSCAASGFSLTDYGVHWVRQAPGKGLEWLGVIWSGGGTAYNTALISRFTISRDNSKNTLYLQMNSLRAEDTAVYYCARRGSYPYNYFDAWGQGTLVTVSSGGGGSGGGGSGGGGSGGGGSGGGGSGGGGSQAVVTQEPSLTVSPGGTVTLTCGSSTGAVTASNYANWVQQKPGQAPRGLIGGHNNRPPGVPARFSGSLLGGKAALTLLGAQPEDEAEYYCALWYSDHWVIGGGTKLTVLGTPLGDTTHTSGKPLDGEYFTLQIRGRERFEMFRELNEALELKDAQAGKEPGGSGGAP
modifications: Self-assembles into tetramers through the p53 SADA domain; labelled with 125I in Example 8.
notes: also called CD38-SADA construct without disulfide bonds; CD38-SADA
As for B1, in test [1], binding was characterised by a dissociation constant (Kd) of 7.5 nM, the koff came out at 0.0011 s⁻¹ and the kon is 140000 M⁻¹ s⁻¹. In test [2], binding was put at a Kd of 8.1 nM, the koff came to 0.0011 s⁻¹ and the kon was 130000 M⁻¹ s⁻¹.
